Test results taken from article PMC4340967, “Histidine 352 (His^352) and Tryptophan 355 (Trp^355) Are Essential for Flax UGT74S1 Glucosylation Activity toward Secoisolariciresinol” (PLoS ONE, 2015).
Numbering of substitutions follows the chain as printed. Numbers in names are those of the source.

B1: UGT74S1 (wild type, W) (Linum usitatissimum) (protein)
chain: MAGDEREKAHCLVVPAAAQGHFTPLLQFSKRLIPKRIRVTLALTRFIHSTMTVTAQSGIHIDTISDGFDHSGLILQDPEHYSQTFRRVGSETLTDLIRKQSESRHPVHCIIYDASMPWFLDVAKRFGIVGAAFLTQSCAVNAIYYHLREGTIKRPVVSDPAAGTLVIDGLPPLEVSDLPSFIWDDLHTEFLAAHLRQFSNDGADWVFCNTVYQLELEAVDWLTKQWLINFRTIGPTIPSFYLDKQIPDDKDYDISIFNPQNQTCMNWLQSKPDGSVVYVSFGSLARLSPQQTEELYFGLKNSNHYFLWVVRESEVAKLPKEEYLSGEKGLVVSWCSQLQVLASGKVGCFVTHCGWNSTLEALSLGVPMVAMPECGDQLTNAKFIKDVWKTGVRAEADDGKGIMWGMIKREVIERCIREVMEGEETRRNADKWGKIIKEAVVEGGSSDKNTEDFATSLINFAETFQFSC
B2: UGT74S1 (wild type, W) (Linum usitatissimum; C335A) (protein)
chain: B1 chain with C335A
B3: UGT74S1 (wild type, W) (Linum usitatissimum; Q337A) (protein)
chain: B1 chain with Q337A

What follows are proteins tested on COc1cc(C[C@@H](CO)[C@H](CO)Cc2ccc(O)c(OC)c2)ccc1O (assay: UPLC-MS assay of SMG formation, Lineweaver-Burk). Details: 70-1650 µM SECO, 1.64 mM UDP-glucose fixed, 1 mM NaCl, pH 8.0, 30°C, for SMG production.
Type: biochemical, Linum usitatissimum
From the text: (§1) UPLC-MS assay of SMG formation, Lineweaver-Burk on UGT74S1 (wild type, W)

Question: How did the Km turn out when B1 was run?
Answer: Its Km is 717 µM.

Question: And the kcat?
Answer: Its kcat is 0.23 s⁻¹.

Question: And the kcat/Km?
Answer: Its kcat/Km is 321 M⁻¹ s⁻¹.

Question: Which Km does the source give for B2 here?
Answer: Its Km is 1538 µM.

Question: What about the kcat of the same protein?
Answer: Its kcat is 0.0494 s⁻¹.

Question: And the kcat/Km?
Answer: Its kcat/Km is 32.1 M⁻¹ s⁻¹.

Question: B3 was tested. Which Km did it give?
Answer: Its Km is 2716 µM.

Question: What about the kcat of the same protein?
Answer: Its kcat is 0.0077 s⁻¹.

Question: What about the kcat/Km of the same protein?
Answer: The kcat/Km was 2.85 M⁻¹ s⁻¹.

These proteins were tested on O=c1ccn([C@@H]2O[C@H](CO[P@@](=O)(O)O[P@@](=O)(O)O[C@H]3O[C@H](CO)[C@@H](O)[C@H](O)[C@H]3O)[C@@H](O)[C@H]2O)c(=O)[nH]1 (assay: UPLC-MS assay of SMG formation, Lineweaver-Burk). Details: 0.82-8.2 mM UDP-glucose, 280 µM SECO fixed, 1 mM NaCl, pH 8.0, 30°C, for SMG production.
Type: biochemical, Linum usitatissimum
From the text: as §1

Question: Which Km does the source give for B1 here?
Answer: Its Km is 1103 µM.

Question: What about the kcat of the same protein?
Answer: Its kcat is 0.135 s⁻¹.

Question: What about the kcat/Km of the same protein?
Answer: The kcat/Km was 122 M⁻¹ s⁻¹.

Question: Which Km does the source give for B2 here?
Answer: Its Km is 3443 µM.

Question: And the kcat?
Answer: Its kcat is 0.256 s⁻¹.

Question: What about the kcat/Km of the same protein?
Answer: Its kcat/Km is 74.3 M⁻¹ s⁻¹.

Question: Which results are given for B3?
Answer: Km: 27610 µM; kcat: 0.547 s⁻¹; kcat/Km: 19.8 M⁻¹ s⁻¹
